PMC11245854

Tests used:
[1] = molecular target: human C1, P02745;P02746;P02747; assay: HS-AFM; conditions: CL domain anchored onto a Ni2+-coated mica surface using the C-terminal hexahistidine tag; count in 10 different scanning areas; parent: est. 150; read off a plot
[2] = molecular target: human C1q, P02745;P02746;P02747; assay: HS-AFM; conditions: CL domain anchored onto a Ni2+-coated mica surface using the C-terminal hexahistidine tag; count in 10 different scanning areas; parent: est. 88; read off a plot

| response [1] [molecules] | response [2] [molecules] | Substance |
| --- | --- | --- |
| 55 | 19 | human Cκ domain (from UniProt P01834) E194A |
| 160 | 83 | human Cκ domain (from UniProt P01834) K206A |
